From patent publication US20150203577A1 (Chugai, published 2015) come the findings set out here.

The target of experiment [1] is T1, mouse FcγRIII extracellular domain, C-terminal His tag (mouse, UniProt P08508 31-215).
T1 construct: Whole entry named; also called mFcγRIII; mFcgRIII
T1 chain: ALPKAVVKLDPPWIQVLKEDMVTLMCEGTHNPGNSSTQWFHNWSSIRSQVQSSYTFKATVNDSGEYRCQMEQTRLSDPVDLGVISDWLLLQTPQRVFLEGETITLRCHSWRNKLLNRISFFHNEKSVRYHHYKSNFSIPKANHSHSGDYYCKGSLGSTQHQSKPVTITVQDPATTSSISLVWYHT
Description: SPR (Biacore T200); KD of H237-mIgG1/MRAL-k0 / KD of variant. (In SPR one partner is held on a chip, and binding of the other changes the refractive index at the surface.)

In experiment [2] the target is T2, mouse FcγRII extracellular domain, C-terminal His tag (mouse, UniProt P08101 30-210).
T2 construct: Whole entry named; also called mFcγRII; mFcgRII
T2 sequence: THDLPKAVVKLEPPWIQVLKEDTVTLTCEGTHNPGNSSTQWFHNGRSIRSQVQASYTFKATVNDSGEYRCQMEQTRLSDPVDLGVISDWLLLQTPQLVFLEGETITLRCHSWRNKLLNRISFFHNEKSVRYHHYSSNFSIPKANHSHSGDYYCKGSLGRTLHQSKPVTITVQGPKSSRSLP
The experiment is described as above.

B1: H237-MB613/MRAL-k0 (antibody, mouse IgG1, kappa)
heavy: QVQLQESGPGLVKPSETLSLTCAVSGHSISHDHAWSWVRQPPGEGLEWIGFISYSGITNYNPSLQGRVTISRDNSKNTLYLQMNSLRAEDTAVYYCARSLARTTAMDYWGEGTLVTVSSAKTTPPSVYPLAPGSAAQTNSMVTLGCLVKGYFPEPVTVTWNSGSLSSGVHTFPAVLQSDLYTLSSSVTVPSSTWPSETVTCNVAHPASSTKVDKKIVPRDCGCKPCICTVPEVDEVFIFPPKPKDVLTITLTPKVTCVVVDIMKDDPEVQFSWFVDDVEVHTAQTQPREEQFNSTFRSVSELPIMHQDWLNGKEFKCRVNSAAFPAPIEKTISKTKGRPKAPQVYTIPPPKEQMAKDKVSLTCMITDFFPEDITVEWQWNGQPAENYKNTQPIMDTDGSYFVYSKLNVQKSNWEAGNTFTCSVLHEGLHNHHTEKSLSHSPGK
light: not shown
notes: copies: 2 + 2
B1: in experiment [1], the “relative mFcγRIII-binding activity (mIgG1 = 1)” value is 0.06 fold. In experiment [2], the “relative mFcγRII-binding activity (mIgG1 = 1)” value came out at 0.24 fold.

B2: H237-MB615/MRAL-k0 (antibody, mouse IgG1, kappa)
heavy: QVQLQESGPGLVKPSETLSLTCAVSGHSISHDHAWSWVRQPPGEGLEWIGFISYSGITNYNPSLQGRVTISRDNSKNTLYLQMNSLRAEDTAVYYCARSLARTTAMDYWGEGTLVTVSSAKTTPPSVYPLAPGSAAQTNSMVTLGCLVKGYFPEPVTVTWNSGSLSSGVHTFPAVLQSDLYTLSSSVTVPSSTWPSETVTCNVAHPASSTKVDKKIVPRDCGCKPCICTVPEVEDVDIFPPKPKDVLTITLTPKVTCVVVDISKDDPEVQFSWFVDDVEVHTAQTQPREEQFNSTFRSVSELPIMHQDWLNGKEFKCRVNSAAFPAPIEKTISKTKGRPKAPQVYTIPPPKEQMAKDKVSLTCMITDFFPEDITVEWQWNGQPAENYKNTQPIMDTDGSYFVYSKLNVQKSNWEAGNTFTCSVLHEGLHNHHTEKSLSHSPGK
light: not shown
notes: copies: 2 + 2
Consider B2, for which the “relative mFcγRIII-binding activity (mIgG1 = 1)” value in experiment [1] was 0.14 fold. In experiment [2], the “relative mFcγRII-binding activity (mIgG1 = 1)” value came out at 0.59 fold.

B3: H237-MB617/MRAL-k0 (antibody, mouse IgG1, kappa)
heavy: QVQLQESGPGLVKPSETLSLTCAVSGHSISHDHAWSWVRQPPGEGLEWIGFISYSGITNYNPSLQGRVTISRDNSKNTLYLQMNSLRAEDTAVYYCARSLARTTAMDYWGEGTLVTVSSAKTTPPSVYPLAPGSAAQTNSMVTLGCLVKGYFPEPVTVTWNSGSLSSGVHTFPAVLQSDLYTLSSSVTVPSSTWPSETVTCNVAHPASSTKVDKKIVPRDCGCKPCICTVPEESDVDIFPPKPKDVLTITLTPKVTCVVVDISKDDPEVQFSWFVDDVEVHTAQTQPREEQFNSTFRSVSELPIMHQDWLNGKEFKCRVNSAAFPAPIEKTISKTKGRPKAPQVYTIPPPKEQMAKDKVSLTCMITDFFPEDITVEWQWNGQPAENYKNTQPIMDTDGSYFVYSKLNVQKSNWEAGNTFTCSVLHEGLHNHHTEKSLSHSPGK
light: not shown
notes: copies: 2 + 2
Take B3: the “relative mFcγRIII-binding activity (mIgG1 = 1)” value in experiment [1] worked out at 0.15 fold. Moreover, the “relative mFcγRII-binding activity (mIgG1 = 1)” value in experiment [2] came to 0.84 fold.

B4: H237-MB619/MRAL-k0 (antibody, mouse IgG1, kappa)
heavy: QVQLQESGPGLVKPSETLSLTCAVSGHSISHDHAWSWVRQPPGEGLEWIGFISYSGITNYNPSLQGRVTISRDNSKNTLYLQMNSLRAEDTAVYYCARSLARTTAMDYWGEGTLVTVSSAKTTPPSVYPLAPGSAAQTNSMVTLGCLVKGYFPEPVTVTWNSGSLSSGVHTFPAVLQSDLYTLSSSVTVPSSTWPSETVTCNVAHPASSTKVDKKIVPRDCGCKPCICTVPEVDDVDIFPPKPKDVLTITLTPKVTCVVVDISKDDPEVQFSWFVDDVEVHTAQTQPREEQFNSTFRSVSELPIMHQDWLNGKEFKCRVNSAAFPAPIEKTISKTKGRPKAPQVYTIPPPKEQMAKDKVSLTCMITDFFPEDITVEWQWNGQPAENYKNTQPIMDTDGSYFVYSKLNVQKSNWEAGNTFTCSVLHEGLHNHHTEKSLSHSPGK
light: not shown
notes: copies: 2 + 2
With B4, the “relative mFcγRIII-binding activity (mIgG1 = 1)” value in experiment [1] turned out to be 0.16 fold. For the same molecule, in experiment [2], the “relative mFcγRII-binding activity (mIgG1 = 1)” value was determined as 0.62 fold.

B5: H237-MB622/MRAL-k0 (antibody, mouse IgG1, kappa)
heavy: QVQLQESGPGLVKPSETLSLTCAVSGHSISHDHAWSWVRQPPGEGLEWIGFISYSGITNYNPSLQGRVTISRDNSKNTLYLQMNSLRAEDTAVYYCARSLARTTAMDYWGEGTLVTVSSAKTTPPSVYPLAPGSAAQTNSMVTLGCLVKGYFPEPVTVTWNSGSLSSGVHTFPAVLQSDLYTLSSSVTVPSSTWPSETVTCNVAHPASSTKVDKKIVPRDCGCKPCICTVPEVDDVFIFPPKPKDVLTITLTPKVTCVVVDISKDDPEVQFSWFVDDVEVHTAQTQPREEQFNSTFRSVSELPIMHQDWLNGKEFKCRVNSAAFPAPIEKTISKTKGRPKAPQVYTIPPPKEQMAKDKVSLTCMITDFFPEDITVEWQWNGQPAENYKNTQPIMDTDGSYFVYSKLNVQKSNWEAGNTFTCSVLHEGLHNHHTEKSLSHSPGK
light: not shown
notes: copies: 2 + 2
For the molecule B5, the “relative mFcγRIII-binding activity (mIgG1 = 1)” value in experiment [1] stood at 0.4 fold. Further, the “relative mFcγRII-binding activity (mIgG1 = 1)” value in experiment [2] was determined as 3.83 fold.

B6: H237-MB620/MRAL-k0 (antibody, mouse IgG1, kappa)
heavy: QVQLQESGPGLVKPSETLSLTCAVSGHSISHDHAWSWVRQPPGEGLEWIGFISYSGITNYNPSLQGRVTISRDNSKNTLYLQMNSLRAEDTAVYYCARSLARTTAMDYWGEGTLVTVSSAKTTPPSVYPLAPGSAAQTNSMVTLGCLVKGYFPEPVTVTWNSGSLSSGVHTFPAVLQSDLYTLSSSVTVPSSTWPSETVTCNVAHPASSTKVDKKIVPRDCGCKPCICTVPEVDDVFIFPPKPKDVLTITLTPKVTCVVVDIMKDDPEVQFSWFVDDVEVHTAQTQPREEQFNSTFRSVSELPIMHQDWLNGKEFKCRVNSAAFPAPIEKTISKTKGRPKAPQVYTIPPPKEQMAKDKVSLTCMITDFFPEDITVEWQWNGQPAENYKNTQPIMDTDGSYFVYSKLNVQKSNWEAGNTFTCSVLHEGLHNHHTEKSLSHSPGK
light: not shown
notes: copies: 2 + 2
As to B6, the “relative mFcγRIII-binding activity (mIgG1 = 1)” value in experiment [1] was 0.07 fold. The “relative mFcγRII-binding activity (mIgG1 = 1)” value in experiment [2] was 0.23 fold.

B7: H237-MB621/MRAL-k0 (antibody, mouse IgG1, kappa)
heavy: QVQLQESGPGLVKPSETLSLTCAVSGHSISHDHAWSWVRQPPGEGLEWIGFISYSGITNYNPSLQGRVTISRDNSKNTLYLQMNSLRAEDTAVYYCARSLARTTAMDYWGEGTLVTVSSAKTTPPSVYPLAPGSAAQTNSMVTLGCLVKGYFPEPVTVTWNSGSLSSGVHTFPAVLQSDLYTLSSSVTVPSSTWPSETVTCNVAHPASSTKVDKKIVPRDCGCKPCICTVPEVDEVFIFPPKPKDVLTITLTPKVTCVVVDISKDDPEVQFSWFVDDVEVHTAQTQPREEQFNSTFRSVSELPIMHQDWLNGKEFKCRVNSAAFPAPIEKTISKTKGRPKAPQVYTIPPPKEQMAKDKVSLTCMITDFFPEDITVEWQWNGQPAENYKNTQPIMDTDGSYFVYSKLNVQKSNWEAGNTFTCSVLHEGLHNHHTEKSLSHSPGK
light: not shown
notes: copies: 2 + 2
B7: in experiment [1], the “relative mFcγRIII-binding activity (mIgG1 = 1)” value was 0.23 fold. Moreover, the “relative mFcγRII-binding activity (mIgG1 = 1)” value in experiment [2] was determined as 3.15 fold.

B8: H237-MB616/MRAL-k0 (antibody, mouse IgG1, kappa)
heavy: QVQLQESGPGLVKPSETLSLTCAVSGHSISHDHAWSWVRQPPGEGLEWIGFISYSGITNYNPSLQGRVTISRDNSKNTLYLQMNSLRAEDTAVYYCARSLARTTAMDYWGEGTLVTVSSAKTTPPSVYPLAPGSAAQTNSMVTLGCLVKGYFPEPVTVTWNSGSLSSGVHTFPAVLQSDLYTLSSSVTVPSSTWPSETVTCNVAHPASSTKVDKKIVPRDCGCKPCICTVPEVEDVFIFPPKPKDVLTITLTPKVTCVVVDIMKDDPEVQFSWFVDDVEVHTAQTQPREEQFNSTFRSVSELPIMHQDWLNGKEFKCRVNSAAFPAPIEKTISKTKGRPKAPQVYTIPPPKEQMAKDKVSLTCMITDFFPEDITVEWQWNGQPAENYKNTQPIMDTDGSYFVYSKLNVQKSNWEAGNTFTCSVLHEGLHNHHTEKSLSHSPGK
light: not shown
notes: copies: 2 + 2
Regarding B8, the “relative mFcγRIII-binding activity (mIgG1 = 1)” value in experiment [1] came to 0.57 fold. In addition, the “relative mFcγRII-binding activity (mIgG1 = 1)” value in experiment [2] was 4.06 fold.

B9: H237-MB614/MRAL-k0 (antibody, mouse IgG1, kappa)
heavy: QVQLQESGPGLVKPSETLSLTCAVSGHSISHDHAWSWVRQPPGEGLEWIGFISYSGITNYNPSLQGRVTISRDNSKNTLYLQMNSLRAEDTAVYYCARSLARTTAMDYWGEGTLVTVSSAKTTPPSVYPLAPGSAAQTNSMVTLGCLVKGYFPEPVTVTWNSGSLSSGVHTFPAVLQSDLYTLSSSVTVPSSTWPSETVTCNVAHPASSTKVDKKIVPRDCGCKPCICTVPEEEDVFIFPPKPKDVLTITLTPKVTCVVVDISKDDPEVQFSWFVDDVEVHTAQTQPREEQFNSTFRSVSELPIMHQDWLNGKEFKCRVNSAAFPAPIEKTISKTKGRPKAPQVYTIPPPKEQMAKDKVSLTCMITDFFPEDITVEWQWNGQPAENYKNTQPIMDTDGSYFVYSKLNVQKSNWEAGNTFTCSVLHEGLHNHHTEKSLSHSPGK
light: not shown
notes: copies: 2 + 2
As for B9, the “relative mFcγRIII-binding activity (mIgG1 = 1)” value in experiment [1] was 0.84 fold. In addition, the “relative mFcγRII-binding activity (mIgG1 = 1)” value in experiment [2] was found to be 10.9 fold.

B10: H237-MB618/MRAL-k0 (antibody, mouse IgG1, kappa)
heavy: QVQLQESGPGLVKPSETLSLTCAVSGHSISHDHAWSWVRQPPGEGLEWIGFISYSGITNYNPSLQGRVTISRDNSKNTLYLQMNSLRAEDTAVYYCARSLARTTAMDYWGEGTLVTVSSAKTTPPSVYPLAPGSAAQTNSMVTLGCLVKGYFPEPVTVTWNSGSLSSGVHTFPAVLQSDLYTLSSSVTVPSSTWPSETVTCNVAHPASSTKVDKKIVPRDCGCKPCICTVPEEDDVFIFPPKPKDVLTITLTPKVTCVVVDISKDDPEVQFSWFVDDVEVHTAQTQPREEQFNSTFRSVSELPIMHQDWLNGKEFKCRVNSAAFPAPIEKTISKTKGRPKAPQVYTIPPPKEQMAKDKVSLTCMITDFFPEDITVEWQWNGQPAENYKNTQPIMDTDGSYFVYSKLNVQKSNWEAGNTFTCSVLHEGLHNHHTEKSLSHSPGK
light: not shown
notes: copies: 2 + 2
In the case of B10, the “relative mFcγRIII-binding activity (mIgG1 = 1)” value in experiment [1] turned out to be 0.13 fold. In addition, the “relative mFcγRII-binding activity (mIgG1 = 1)” value in experiment [2] turned out to be 1.63 fold.
